Percentage of increase in calcium influx through Cav3.2 with respect to control, SQAP with shorter depolarization (0.5 ms, percentage of increase in calcium influx through Cav3.2 with respect to control, SQAP with shorter hyperpolarization (6 ms and percentage of increase in calcium influx through Cav3.2 with respect to control, square action potential (SQAP), first stimulus data for 1 substance are collected here from PMC3401526.

Assay [1] has as its target Cav3.2 T-type calcium channel α 1H subunit (UniProt O95180).
Assay [2] shares this target. The source holds these as a separate data set.

Chain of UniProt O95180 (O95180 whole entry): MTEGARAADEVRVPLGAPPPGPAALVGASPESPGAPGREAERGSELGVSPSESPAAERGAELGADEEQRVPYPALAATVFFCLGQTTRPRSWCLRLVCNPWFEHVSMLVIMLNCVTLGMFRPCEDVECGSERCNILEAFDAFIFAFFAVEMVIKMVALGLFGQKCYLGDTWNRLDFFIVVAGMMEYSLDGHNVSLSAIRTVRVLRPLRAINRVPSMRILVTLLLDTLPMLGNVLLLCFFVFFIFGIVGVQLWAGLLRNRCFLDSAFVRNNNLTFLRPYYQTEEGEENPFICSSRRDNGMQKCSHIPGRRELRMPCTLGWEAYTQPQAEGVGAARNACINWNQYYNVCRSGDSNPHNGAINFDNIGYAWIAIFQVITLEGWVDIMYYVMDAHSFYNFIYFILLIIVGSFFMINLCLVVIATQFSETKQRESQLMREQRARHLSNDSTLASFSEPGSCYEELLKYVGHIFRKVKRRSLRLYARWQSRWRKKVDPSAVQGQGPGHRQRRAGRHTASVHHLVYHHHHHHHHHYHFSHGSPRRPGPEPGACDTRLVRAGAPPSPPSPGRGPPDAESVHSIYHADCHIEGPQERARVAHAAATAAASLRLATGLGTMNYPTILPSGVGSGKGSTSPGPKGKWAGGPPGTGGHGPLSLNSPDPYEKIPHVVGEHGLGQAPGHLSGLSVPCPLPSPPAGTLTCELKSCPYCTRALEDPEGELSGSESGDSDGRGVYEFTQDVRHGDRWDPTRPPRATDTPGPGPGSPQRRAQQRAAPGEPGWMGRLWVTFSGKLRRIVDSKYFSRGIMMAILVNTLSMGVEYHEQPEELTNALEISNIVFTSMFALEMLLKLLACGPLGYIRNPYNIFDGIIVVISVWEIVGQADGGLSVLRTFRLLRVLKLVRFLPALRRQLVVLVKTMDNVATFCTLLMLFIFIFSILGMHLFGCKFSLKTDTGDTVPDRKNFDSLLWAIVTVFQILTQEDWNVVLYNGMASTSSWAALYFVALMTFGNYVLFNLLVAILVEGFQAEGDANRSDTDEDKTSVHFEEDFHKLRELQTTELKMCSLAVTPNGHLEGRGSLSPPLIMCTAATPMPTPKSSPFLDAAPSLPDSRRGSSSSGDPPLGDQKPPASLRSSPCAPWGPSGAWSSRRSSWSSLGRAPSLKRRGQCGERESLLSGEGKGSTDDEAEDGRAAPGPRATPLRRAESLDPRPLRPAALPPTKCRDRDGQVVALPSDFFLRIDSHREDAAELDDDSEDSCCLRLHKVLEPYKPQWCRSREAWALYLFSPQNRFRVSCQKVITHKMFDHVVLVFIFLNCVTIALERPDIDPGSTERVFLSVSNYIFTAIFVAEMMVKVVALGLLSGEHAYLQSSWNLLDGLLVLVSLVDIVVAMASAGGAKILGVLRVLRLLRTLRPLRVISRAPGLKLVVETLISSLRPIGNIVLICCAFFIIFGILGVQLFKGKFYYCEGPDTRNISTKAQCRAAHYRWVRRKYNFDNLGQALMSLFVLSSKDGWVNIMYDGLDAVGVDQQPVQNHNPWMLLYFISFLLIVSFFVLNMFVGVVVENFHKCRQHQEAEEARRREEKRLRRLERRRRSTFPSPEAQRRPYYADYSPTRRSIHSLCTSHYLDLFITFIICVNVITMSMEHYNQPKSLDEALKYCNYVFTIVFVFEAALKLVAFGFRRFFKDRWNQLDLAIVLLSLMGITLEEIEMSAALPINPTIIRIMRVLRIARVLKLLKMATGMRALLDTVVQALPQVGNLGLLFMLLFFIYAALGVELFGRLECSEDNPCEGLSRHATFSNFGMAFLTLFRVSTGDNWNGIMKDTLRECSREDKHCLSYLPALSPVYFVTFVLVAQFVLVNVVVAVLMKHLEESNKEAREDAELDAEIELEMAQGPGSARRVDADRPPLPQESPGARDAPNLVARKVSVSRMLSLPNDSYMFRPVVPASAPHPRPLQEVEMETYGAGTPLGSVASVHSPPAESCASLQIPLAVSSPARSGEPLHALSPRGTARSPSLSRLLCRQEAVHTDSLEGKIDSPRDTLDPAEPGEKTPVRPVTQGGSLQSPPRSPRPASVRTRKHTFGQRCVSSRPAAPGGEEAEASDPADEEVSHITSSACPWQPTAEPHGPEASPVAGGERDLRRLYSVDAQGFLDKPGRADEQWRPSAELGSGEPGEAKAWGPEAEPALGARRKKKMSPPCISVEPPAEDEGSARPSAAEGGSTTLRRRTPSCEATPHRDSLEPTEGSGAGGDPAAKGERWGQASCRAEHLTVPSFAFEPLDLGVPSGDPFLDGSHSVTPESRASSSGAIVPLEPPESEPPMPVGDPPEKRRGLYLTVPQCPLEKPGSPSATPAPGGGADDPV

Regarding “ΔKelch, truncated KLHL1 mutant lacking the Kelch domains (domain or fragment)”, in assay [1], the percentage of increase in calcium influx through Cav3.2 with respect to control, SQAP with shorter depolarization (0.5 ms at +50 mV); not a rescue of the ΔKelch effect is 38 % increase and the percentage of increase in calcium influx through Cav3.2 with respect to control, SQAP with shorter hyperpolarization (6 ms at -90 mV); not a rescue of the ΔKelch effect was 31 % increase. Also, the percentage of increase in calcium influx through Cav3.2 with respect to control, square action potential (SQAP), first stimulus in assay [2] was found to be 25 % increase.
